Assay [1] deals with T1, recombinant human GPC2-His protein (human, UniProt Q8N158 24-554, limits assumed).
T1 construct: Bought protein; The SPR paragraph gives no catalogue number for GPC2-His; also called recombinant Human Glypican 2 Protein; recombinant human GPC2 protein; not shown: His tag
T1 sequence (looked up): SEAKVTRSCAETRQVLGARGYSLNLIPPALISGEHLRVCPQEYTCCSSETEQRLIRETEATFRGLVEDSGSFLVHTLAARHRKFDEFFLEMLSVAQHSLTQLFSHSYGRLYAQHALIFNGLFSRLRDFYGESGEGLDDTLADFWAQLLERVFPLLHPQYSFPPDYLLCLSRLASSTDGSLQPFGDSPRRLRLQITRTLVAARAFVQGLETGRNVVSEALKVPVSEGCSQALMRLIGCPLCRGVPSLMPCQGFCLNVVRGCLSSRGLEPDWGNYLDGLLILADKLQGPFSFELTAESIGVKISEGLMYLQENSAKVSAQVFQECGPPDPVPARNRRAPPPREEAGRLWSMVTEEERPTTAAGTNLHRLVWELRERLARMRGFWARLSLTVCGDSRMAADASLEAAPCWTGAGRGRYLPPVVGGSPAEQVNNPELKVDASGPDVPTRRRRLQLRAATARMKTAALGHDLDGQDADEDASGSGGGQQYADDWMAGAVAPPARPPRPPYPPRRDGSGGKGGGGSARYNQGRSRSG
The assay can be described thus: SPR, Biacore T200, GPC2-His amine-coupled to CM5 chip, VHH-hIgG1Fc as analyte, 1:1 model. On the procedure: Each of the exemplary anti-GPC2 VHH sequences was cloned into a vector comprising a human IgG1Fc fragment (hlgG1Fc) sequence to facilitate recombinant expression of anti-GPC2 VHH-hlgG1Fc. Recombinant proteins were obtained and purified for SPR assays. The affinity of each anti-GPC2 VHH-hIgG1Fc for GPC2 was determined by SPR using a BIACORE® T200 analytical system (GE Healthcare). Briefly, recombinant human GPC2-His protein was covalently coupled to a CM5(s) sensor chip using an amine coupling kit. Exemplary VHH-hIgG1Fc proteins were serially diluted in running buffer (10 mM HEPES, 150 mM NaCl, 3 mM EDTA, 0.05% Tween-20, pH 7.4) and injected over the chip cell at a flowrate of 100 μL/min for 100 seconds followed by buffer-only injection for 300 seconds to allow for antibody dissociation. The dissociation […] (KD) were determined using the BIACORE® T200 evaluation software version 3.0 (Langmuir binding, local fit, 1:1 binding model).

In assay [2] the target is T2, human GPC2 on cells (SH-SY5Y, IMR-32, HEK293T/hGPC2) (human, UniProt Q8N158 24-554).
T2 construct: whole, on cells; GPI-anchored proteoglycan on the cell surface; also called cell-surface human GPC2; GPC2 positive cells
T2 sequence (looked up): T1 sequence (looked up)
The assay can be described thus: flow cytometry on SH-SY5Y cells, VHH-His detected with anti-His tag antibody (iFluor 647), median fluorescence intensity, four-parameter fit. As for the experimental part:
(§1) Binding affinities of humanized VHH proteins AS70950VH6, AS71529VH6, AS72669VH6 and AS71529VH6-AS70950VH6 anti-GPC2 VHH-HIS proteins to human GPC2 expressing cells (SH-SY5Y and HEK293T/hGPC2) and cynomolgus monkey GPC2 expressing cell (HEK293T/cynoGPC2) were determined using flow cytometry. Briefly, serially diluted anti-GPC2 VHH-HIS proteins were incubated with 2×10⁵ target cells at 4° C. for 30 mins. After washing, cells were further labelled with THE™ His tag Antibody (iFluor 647) (Genescript, #A01802) at 4° C. for 30 mins. Fluorescence intensity was measured by flow cytometry. A four parameters variable slope curve was fitted to each group using GraphPad Prism for Windows Version 6.02. As shown in FIG. 4A-FIG. 4C, exemplary AS70950VH6, AS71529VH6, AS72669VH6 and AS71529VH6-AS70950VH6 specifically bind to SH-SY5Y, HEK293T/hGPC2 and HEK293T/cynoGPC2 in a dose-dependent manner.

The target of assay [3] is T2, human GPC2 on cells (SH-SY5Y, IMR-32, …). The assay can be described thus: flow cytometry on HEK293T/hGPC2 cells, VHH-His detected with anti-His tag antibody (iFluor 647), median fluorescence intensity, four-parameter fit. As for the experimental part: as §1
The target in assay [4] is T3, cynomolgus monkey GPC2 on cells (HEK293T/cynoGPC2) (Cynomolgus monkey (Macaca fascicularis), UniProt A0A2K5X5G1 24-551).
T3 construct: whole, on cells; also called Cynomolgus monkey (Macaca fascicularis) GPC2
T3 sequence: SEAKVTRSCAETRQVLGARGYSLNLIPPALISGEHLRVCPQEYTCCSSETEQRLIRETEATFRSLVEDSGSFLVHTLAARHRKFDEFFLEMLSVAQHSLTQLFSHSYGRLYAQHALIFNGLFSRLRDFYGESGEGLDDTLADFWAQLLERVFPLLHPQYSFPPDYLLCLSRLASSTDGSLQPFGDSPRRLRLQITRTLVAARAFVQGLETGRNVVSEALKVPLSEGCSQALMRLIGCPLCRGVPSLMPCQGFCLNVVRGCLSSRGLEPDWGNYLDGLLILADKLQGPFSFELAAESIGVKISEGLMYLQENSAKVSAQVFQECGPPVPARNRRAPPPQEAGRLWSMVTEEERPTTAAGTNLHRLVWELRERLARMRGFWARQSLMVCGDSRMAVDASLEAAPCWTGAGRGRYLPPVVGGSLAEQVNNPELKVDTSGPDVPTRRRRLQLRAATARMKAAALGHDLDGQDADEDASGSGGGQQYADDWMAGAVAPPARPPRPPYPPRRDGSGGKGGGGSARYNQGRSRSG
The assay can be described thus: flow cytometry on HEK293T/cynoGPC2 cells, VHH-His detected with anti-His tag antibody (iFluor 647), median fluorescence intensity, four-parameter fit. As for the experimental part:
as §1

The target of assay [5] is T4, recombinant human GPC4-Fc (human, UniProt O75487 19-529, limits assumed).
T4 construct: Bought protein; also called RD System Cat #9195-GP; not shown: Fc
T4 sequence (looked up): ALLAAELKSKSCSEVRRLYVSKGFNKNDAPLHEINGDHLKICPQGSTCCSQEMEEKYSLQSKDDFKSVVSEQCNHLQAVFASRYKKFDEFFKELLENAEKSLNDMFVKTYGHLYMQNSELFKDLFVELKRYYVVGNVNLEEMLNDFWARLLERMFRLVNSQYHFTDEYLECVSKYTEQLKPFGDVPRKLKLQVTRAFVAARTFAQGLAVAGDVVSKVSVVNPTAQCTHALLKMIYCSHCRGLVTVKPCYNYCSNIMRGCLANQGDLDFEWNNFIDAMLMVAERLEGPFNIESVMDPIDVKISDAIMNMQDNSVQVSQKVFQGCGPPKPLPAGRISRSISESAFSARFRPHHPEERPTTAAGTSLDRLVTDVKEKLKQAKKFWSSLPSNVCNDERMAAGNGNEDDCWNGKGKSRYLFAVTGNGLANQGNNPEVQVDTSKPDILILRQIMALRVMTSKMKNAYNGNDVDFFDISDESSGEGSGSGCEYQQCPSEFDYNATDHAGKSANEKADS
The assay can be described thus: ELISA on GPC4 coated plate; by paragraph 266 the VHH-His form with anti-His tag secondary was used on GPC4-Fc; the sheet's title prints the hIgG1Fc form and its legend 'rhGPC4-his'. On the procedure:
To evaluate the specificity of humanized anti-GPC2 VHH5 to recombinant human GPC2 protein, an ELISA-based binding assay was conducted to determine the differential target proteins binding of anti-GPC2 VHH5. Briefly, microplates were coated with 2 μg/mL recombinant human GPC1-His (RD System, Cat #4519-GP), GPC2-His (RD System, Cat #2304-GP), GPC3-His (ACRO, Cat #GP3-H5223), GPC4-Fc (RD System, Cat #9195-GP), GPC5-His (RD System, Cat #2607-G5/CF), GPC6-His (RD System, Cat #2845-GP) or recombinant mouse GPC2-His (RD System, Cat #2355-GP) proteins. Recombinant human protein coated plates were blocked with skim milk. Serially diluted humanized VHH-hIgG1Fc recombinant antibodies were added to each well of the plates and incubated at 4° C. for 1.5 h. Samples were further labelled with HRP-conjugated goat anti human IgG (H+L) secondary antibody (Genescript, Cat #A00166-1) and signal was developed with 3,3′,5,5′-Tetramethylbenzidine (TMB) substrate according to manufacturer's instruction. For the GPC4, VHH-His recombinant antibodies and anti-His tag secondary antibody (Genescript, Cat #A00612) were added to the GPC4-Fc coated plates instead. Optic density at 450 nm was measured by plate reader.

B1: AS71529VH6-AS70950VH6-hIgG1Fc (Fc fusion)
chain: EVQLVESGGGLVQPGGSLRLSCAVSEYRYSSRYCMGWFRQAPGKGREGVAAIDSNGSADYVDSVKGRFTISKDNSKNTLYLQMNSLRAEDTAMYYCAADHLAYDCYSGATSVFRYWGQGTLVTVSSGGGGSGGGGSGGGGSEVQLVESGGGLVQPGGSLRLSCAISEFTYKNTCVGWFRQAPGKGREGVAAIDSDGNTNYVDSVKGRFTISQDNSKNTVYLQMNSLRAEDTAMYYCAAGAYCGRLLLWIGNYAYWGQGTLVTVSS
notes: Two different anti-GPC2 VHH domains in tandem, fused to a human IgG1Fc fragment; also called tandem anti-GPC2 VHH-hIgG1Fc; not shown: human IgG1 Fc fragment (hIgG1Fc)
As for B1, in assay [1], the Kd turned out to be 0.19 nM, the koff came out at 6.1e-05 s⁻¹ and the kon is 320000 M⁻¹ s⁻¹.

B2: AS71529VH6 anti-GPC2 VHH-His protein (VHH)
VHH: EVQLVESGGGLVQPGGSLRLSCAVSEYRYSSRYCMGWFRQAPGKGREGVAAIDSNGSADYVDSVKGRFTISKDNSKNTLYLQMNSLRAEDTAMYYCAADHLAYDCYSGATSVFRYWGQGTLVTVSS
With B2, the “EC50 (read off the curve)” value in assay [2] is approximately 100 nM.

B3: AS71529VH6-hIgG1Fc (Fc fusion)
chain: B2 VHH
notes: also called anti-GPC2 VHH-hIgG1Fc; not shown: human IgG1 Fc fragment (hIgG1Fc)
For the molecule B3, in assay [1], the Kd was found to be 5.1 nM, the koff came to 0.0044 s⁻¹ and the kon turned out to be 850000 M⁻¹ s⁻¹.

B4: AS71529VH6-AS70950VH6 anti-GPC2 VHH-His protein (VHH)
chain: EVQLVESGGGLVQPGGSLRLSCAVSEYRYSSRYCMGWFRQAPGKGREGVAAIDSNGSADYVDSVKGRFTISKDNSKNTLYLQMNSLRAEDTAMYYCAADHLAYDCYSGATSVFRYWGQGTLVTVSSGGGGSGGGGSGGGGSEVQLVESGGGLVQPGGSLRLSCAISEFTYKNTCVGWFRQAPGKGREGVAAIDSDGNTNYVDSVKGRFTISQDNSKNTVYLQMNSLRAEDTAMYYCAAGAYCGRLLLWIGNYAYWGQGTLVTVSSHHHHHH
notes: Tandem of two different anti-GPC2 VHH domains
For the molecule B4, the figures for the half-maximal effective concentration (EC50 (read off the curve)) in assay [3], in assay [2] and in assay [4] were approximately 5 nM, approximately 3 nM and approximately 5 nM, respectively.

B5: AS79236VH6 VHH-His recombinant antibody (VHH)
VHH: EVQLVESGGGLVQPGGSLRLSCAVSGYTYSSYCMAWFRQAPGKGLEGVASIDAGGRTTYVDSVKGRFTISKDNAKNSLYLQMNSLRAEDTAMYYCAVDVRTRCGGTWDGEAVYFPYWGQGTLVTVSS
notes: the result sentence still names the hIgG1Fc form
For the molecule B5, the binding result in assay [5] is “no binding (tested: about 300 nM)”.

B6: AS78117VH4 VHH-His recombinant antibody (VHH)
VHH: EVQLVESGGGLVQPGGSLRLSCIVSRYTYATYSMAWFRQAPGKGLEGVSGLDSVGATGYAESVKGRFTISRDNSKNTLYLQMNSLRAEDTAVYYCVVDPASAKVTYGSWSTPSYAYWGQGTLVTVSS
notes: as for B5
Turning to B6, the binding result in assay [5] was “no binding (tested: about 300 nM)”.

B7: AS70950VH6 anti-GPC2 VHH-His protein (VHH)
VHH: EVQLVESGGGLVQPGGSLRLSCAISEFTYKNTCVGWFRQAPGKGREGVAAIDSDGNTNYVDSVKGRFTISQDNSKNTVYLQMNSLRAEDTAMYYCAAGAYCGRLLLWIGNYAYWGQGTLVTVSS
As for B7, in assay [5], the binding result is “no binding (tested: about 300 nM)”. Also, the “EC50 (read off the curve)” value is approximately 2 nM in assay [3], approximately 3 nM in assay [2] and approximately 5 nM in assay [4].

B8: AS72669VH6 anti-GPC2 VHH-His protein (VHH)
VHH: QVQLVESGGGVVQPGGSLRLSCAASRFTYSSYCMGWIRQAPGKGREGVAIFYTGGGRTYYADSVKGRFTISQDNSKNTLYLQMNSLRAEDTAVYYCVAGFYCSGGYWEGDFGYWGQGTLVTVSS
Turning to B8, the entries for the “EC50 (read off the curve)” value in assay [3], in assay [2] and in assay [4] were approximately 4 nM, approximately 2 nM and approximately 5 nM, respectively.

B9: AS72669VH6-hIgG1Fc (Fc fusion)
chain: B8 VHH
notes: as for B3
In the case of B9, in assay [1], the Kd came to 0.15 nM, the koff was found to be 7.7e-05 s⁻¹ and the kon was 520000 M⁻¹ s⁻¹.

The record behind these values is patent US20230136252A1 (NANJING LEGEND BIOTECH, published 2023).
